Drawing on doi:10.1101/2021.08.20.457142, this text covers screen value for 26 variants.

First the molecules themselves.
B1: MKK6 D-site peptide / p38-alpha (MAPK14) L195A, full length (parent complex)
chain 1: SQSKGKKRNPGLKIPKEAFEQP
chain 2: MSQERPTFYRQELNKTVWEVPERYQNLSPVGSGAYGSVCAAFDTKTGHRVAVKKLSRPFQSIIHAKRTYRELRLLKHMKHENVIGLLDVFTPARSLEEFNDVYLVTHLMGADLNNIVKCQKLTDDHVQFLIYQILRGLKYIHSADIIHRDLKPSNLAVNEDCELKILDFGLARHTDDEMTGYVATRWYRAPEIMANWMHYNQTVDIWSVGCIMAELLTGRTLFPGTDHIDQLKLILRLVGTPGAELLKKISSESARNYIQSLAQMPKMNFANVFIGANPLAVDLLEKMLVLDSDKRITAAQALAHAYFAQYHDPDDEPVAEPYDQSFESRDFLIDEWKSLTYDEVISFVPPPLDQEEMES

The assay covers variants of B1.
In the case of chain 1 P10A, chain 1 L12A, the screen value is -0.884 Z-score of the enrichment rate within one screen of 711 sequences.
Then chain 1 G5A, chain 1 L12A, with -0.353 Z-score of the enrichment rate within one screen of 711 sequences; and chain 1 I14C, with -0.81 Z-score of the enrichment rate within one screen of 711 sequences.
Then chain 1 I14R, with -1.31 Z-score of the enrichment rate within one screen of 711 sequences; and chain 1 P15W, with 0.627 Z-score of the enrichment rate within one screen of 711 sequences.
Take chain 1 P15M: the screen value is 1.84 Z-score of the enrichment rate within one screen of 711 sequences.
chain 1 P15S: the screen value was 2.36 Z-score of the enrichment rate within one screen of 711 sequences.
Then chain 1 S3T, with 1.74 Z-score of the enrichment rate within one screen of 711 sequences; and chain 1 S3H, with 1.56 Z-score of the enrichment rate within one screen of 711 sequences.
For chain 1 S3M, the screen value was 2.21 Z-score of the enrichment rate within one screen of 711 sequences.
The figure for chain 1 K7R is 2.22 Z-score of the enrichment rate within one screen of 711 sequences; for chain 1 G5E it is 0.392 Z-score of the enrichment rate within one screen of 711 sequences.
For the variant chain 1 G5Y, the screen value is 2 Z-score of the enrichment rate within one screen of 711 sequences.
For chain 1 K16H, the screen value was 0.315 Z-score of the enrichment rate within one screen of 711 sequences.
The figure for chain 1 K16S is 0.134 Z-score of the enrichment rate within one screen of 711 sequences; for chain 1 K6W it is 0.936 Z-score of the enrichment rate within one screen of 711 sequences; for chain 1 R8W it is 0.178 Z-score of the enrichment rate within one screen of 711 sequences.
As to chain 1 R8P, the screen value is -0.0227 Z-score of the enrichment rate within one screen of 711 sequences.
With chain 1 R8F, the screen value is 0.775 Z-score of the enrichment rate within one screen of 711 sequences.
chain 1 S3A, chain 1 R8A: the screen value was -0.296 Z-score of the enrichment rate within one screen of 711 sequences.
Then chain 1 L12A, chain 1 K13A, with -1.08 Z-score of the enrichment rate within one screen of 711 sequences; and chain 1 K6A, chain 1 N9A, with -0.245 Z-score of the enrichment rate within one screen of 711 sequences.
Then chain 1 K7A, chain 1 R8A, with -0.694 Z-score of the enrichment rate within one screen of 711 sequences; and chain 1 P10K, with 0.591 Z-score of the enrichment rate within one screen of 711 sequences; and chain 1 L12Y, with -1.09 Z-score of the enrichment rate within one screen of 711 sequences.
The figure for chain 1 N9I is 0.56 Z-score of the enrichment rate within one screen of 711 sequences.
